# Experimental data published in the RNAGym collection of RNA variant scans (doi:10.7554/elife.90254).
# B1: OR4K15 (parent)
# chain: GUUAACGGUCAUAGGCCAUGGAAACUAGGAGCACCAUUUCGCUGCCAGUGAAGAAAUGAACAAAGAAAAUCUGGGCCAGGCAGGCAUCAAAAGAAAUAGUCUUGCGCUCAACCAGAAAGUCUGUAAUCAUUUUAAGGGUA
# Variants of: B1
# Assay: self-cleavage, relative activity (ratio to wild type); higher = more cleavage; in vitro, sequencing; the parent is a self-cleaving ribozyme
row,Variant,self-cleavage
1,A24C A55G,1.52
2,A23G U72C,0.3
3,A23G U139C,1.26
4,A22U A90G,0.91
5,A22U G138U,2.01
6,A22U A117G,1.06
7,A23U A30U,0.26
8,A23U A30G,1.09
9,A23G A86G,0.99
10,A23G A86U,1.25
11,A23U A135G,1.35
12,A24U A54G,1.46
13,A23G A30U,0.82
14,A23G A30G,1.1
15,A23G A91G,0.7
16,A23G A91C,1.49
17,A23U U97G,1.35
18,A23G U39C,1.54
19,A24G G65U,1.3
20,A24G A36C,1.51
21,A24G C128U,0.76
22,A22U A126C,1.34
23,A23G G53A,1.7
24,A24C A64G,1.74

row,Variant,self-cleavage
1,A22U A116G,0.96
2,A23U A54G,1.59
3,A23U A54U,1.61
4,A23G C32U,0.82
5,A23G A98U,0.92
6,A23U U43C,1.22
7,A22U A95G,0.94
8,A23G U103A,0.75
9,A24U A55G,1.53
10,A24U A36C,1.63
11,A24G A90C,0.33
12,A24G A90U,1.65
13,A23U G93A,1.85
14,A24U A51G,1.78
15,A24U A51U,1.61
16,A22U A91G,0.68
17,A24G A111G,0.03
18,A24G C34U,1.69
19,A24G A134G,0.94
20,A23G A64U,1.2
21,A23G A64G,0.58
22,A22U G53A,1.47
23,A23U G115U,0.21
24,A24G A89C,1.51

row,Variant,self-cleavage
1,A23U A33U,1.17
2,A24C G123A,1.91
3,A24G A47G,0.73
4,A23G U37C,1.03
5,A24G A114G,0.44
6,A24G A114C,0.05
7,A24G A52G,1.44
8,A24G G29U,1.2
9,A24C A98G,0.56
10,A23G A111U,0.23
11,A23G A111C,0
12,A23G A111G,0.05
13,A22U,1.3
14,A23G A125G,0.4
15,A23G A27U,1.29
16,A24C A91G,1.24
17,A23U A111G,0.04
18,A22U A60G,1.29
19,A22U A135G,0.4
20,A22U U120C,0.48
21,A22U U120A,1.95
22,A23U U87C,1.08
23,A23U U87A,1.36
24,A23G G115A,0.05

row,Variant,self-cleavage
1,A23U A96G,1.59
2,A22U A27U,2.02
3,A24C A30U,0.99
4,A23G C61U,1.24
5,A23G C61G,1.12
6,A23G C61A,1.45
7,A23G A116G,0.47
8,A24C A66U,1.03
9,A22U A94G,1.84
10,A22U U87C,0.88
11,A22U U87A,1.53
12,A23G A51U,1.22
13,A24C C40A,1.99
14,A23G A55G,1.27
15,A23G C101U,0.35
16,A22U A54G,1.46
17,A23U U26C,1.23
18,A24G A95G,1.71
19,A24G U139G,1.86
20,A24G U139C,0.99
21,A24G U139A,1.53
22,A24C A62C,2.03
23,A23G A24G,1.03
24,A24G G74A,0.31

row,Variant,self-cleavage
1,A24G A94G,1.47
2,A22U A78U,0.33
3,A24C U103C,1.38
4,A23U A129U,0.79
5,A23U C76A,0.23
6,A23G G84U,0.21
7,A23U A52G,1.2
8,A24C U130C,0.42
9,A23G A134G,0.76
10,A23G A134U,0.77
11,A24G U103A,0.42
12,A24G U103C,0.32
13,A24G U127C,0.74
14,A24G A69G,1.31
15,A23U A51C,1.55
16,A23G G48A,1.29
17,A23G G48U,0.73
18,A24G U49G,0.9
19,A24G U49A,1.37
20,A24G U49C,1.37
21,A24G C109U,0.46
22,A24G C109A,0.3
23,A23G A67G,1.11
24,A24C A47G,1.46

row,Variant,self-cleavage
1,A22U A23G,1.74
2,A23G A54G,0.6
3,A24C A63G,1.94
4,A23C A96G,1.33
5,A24C A111G,0.01
6,A23G A89G,1.32
7,A23G A135G,1.13
8,A23G A135U,1.78
9,A23U A86G,0.48
10,A23U A86U,1.32
11,A23U A117G,1.14
12,A23U U49A,1.2
13,A23U U49C,1.55
14,A24C A114G,0.97
15,A24G G58U,1.92
16,A23U G137A,1.46
17,A23U U124C,1.64
18,A24G U122G,2.31
19,A24G A30U,1.29
20,A22U A89G,1.31
21,A22U U39C,0.34
22,A23G G41C,1.01
23,A23G G119A,1.38
24,A23U U108C,0.01

row,Variant,self-cleavage
1,A22U C121A,2.6
2,A23G U108A,0.02
3,A24G A110C,0.55
4,A24G A110G,0.17
5,A23U A118G,0.66
6,A23C C76A,0.13
7,A22U A51G,1.63
8,A22U A62U,1.58
9,A22U U49A,1.78
10,A23G A92G,1.17
11,A23G G65A,0.71
12,A24G U132C,1.31
13,A24G U132A,0.48
14,A24C A125U,2.07
15,A23G A118G,0.75
16,A23G A118U,0.78
17,A22U A56G,1.16
18,A24G A55G,0.67
19,A23G U102C,1.87
20,A24C A90G,0.69
21,A22U U108C,0.03
22,A24G C81U,0.64
23,A24G C81G,0.21
